For experiment [1], the target named is T1, NKG2A-CD94-ECD-hFc (human, UniProt P26715 94-233; Q13241 32-179, limits assumed).
T1 construct: extracellular domain; Lot 20200724002, 'provided by CP'; the two-chain layout here is only the reading of the name; also called human NKG2A (recombinant); NKG2A antigen; not shown: human Fc (hFc)
Briefly: ELISA on coated NKG2A-CD94-ECD-hFc (FIG. 43D). The method, then: Methods: ELISA binding of Tribody/ProTribody antibody constructs to antigens: Dilute target protein (hCD3epsilon-His (cat # 10977-H08S, supplier Sino Biological); h5T4-His (cat# 19845-H08H, supplier Sino Biological); NKG2A-CD94-ECD-hFc, Lot:20200724002, provided by CP; or NKG2D-ECD-hFc, Lot: 20200413002, provided by CP) into PBS with final concentration of 0.01 µg/mL for hCD3epsilon-His, 0.3 µg/mL for h5T4-His, 1 µg/mL for NKG2A-CD94-ECD-hFc and 0.7 µg/mL for hNKG2D-ECD-hFc respectively and coat 100 µL/well on ELISA plate (cat: 9018, supplier Corning) respectively. Incubate O/N, 4° C. The plates were blocked with 250 µL 1% BSA in PBST for 1 hr at 37° C.Wash 4 times with PBST. All the washes are done using Biotek (Elx 405). All the Tribody set antibodies were diluted to 400 nM and make 4-fold serially dilutions (12 points, including 0 point). Add 100 µL/well diluted antibody constructs solution to plate, incubate for 1 hr at 37° C.Wash 4 times with PBST. Add 100 µL/well anti-human kappa light chain-HRP (1:10000), incubate for 0.5 hr at 37° C. Wash 4 times with PBST. 100 µL/well of TMB substrate was added and incubated at room temperature for 5 min. 100 µL/well of 1N HCl to terminate reaction. Plates were read using ELISA plate reader at 450 nm wavelength (instrunet SpectraMax M5e). Data Analysis was performed using Graphpad prism 5 software by using nonlinear regression (curve fit): log (agonist) vs. response, agonist is antibody concentration (nM) and response is OD value.
For orientation: In an ELISA, binding on a coated surface is turned into a signal by an enzyme label.

Experiment [2] has as its target T2, NKG2A on NK92 cells (endogenous) (UniProt P26715 1-233, limits assumed).
T2 construct: whole, on cells
Briefly: FACS on NK92 cells, endogenous NKG2A (FIG. 45C). The method, then: (§1) Suspension cultured cells was harvested directly, and adherent cell were digested using TrypLE Express Enzyme (cat: 12604-013, supplier Life technologies). Centrifuge at 1000 rpm for 5 min and discard the supernatant. Cells are suspended at a concentration of 2×10⁶/mL in FACS buffer (2% FBS in PBS) and add 100 µL/well of cell suspension to the plate (cat #3799, supplier Corning). Centrifuging the plates at 2000 rpm for 5 min and discard the supernatant. Re-suspend the cells in 100 µL/well of Tribody set antibodies (400 nM start, 4-fold dilution, 8 point including 0 point) and incubate the plate for 60 min at 4° C. Centrifuge the plate at 2000 rpm, 4° C. for 5 min and discard supernatant. Then wash the cells 3 times with 170 µL FACS buffer. Re-suspend the cells at 100 µL/well with secondary antibody (goat anti-human Ig Fab-FITC, Cat # 2085-02, Southern biotech) with 1:400 dilution and incubate the plate for 30 min at 4° C. in dark. Centrifuge the plate at 2000 rpm, 4° C. for 5 min and discard supernatant. […] The fluorescence intensity of the staining was measured using flow cytometer (BD, FACSVerse). The geometric mean fluorescence intensity (GMFI; median fluorescence intensity (MFI)) of set antibodies staining was calculated (BD FACSuite software). Dose-response curves were generated and EC50s for thetrispecific variants binding were calculated using GraphPad Prism software.

Experiment [3] has as its target T3, human CD3 epsilon on cells (Jurkat T cells, endogenous) (human, UniProt P07766 23-207).
T3 construct: whole, on cells; On cells CD3 epsilon stands in the TCR/CD3 complex; only the epsilon chain is named as target; also called hCD3ε on Jurkat; CD3ε expressing cells
The experiment is described as follows: FACS on Jurkat T cells, endogenous hCD3ε (FIG. 45A). The procedure: as §1, with “buffer.” for “buffer. Re-suspend the cells at 100 µL/well with secondary antibody (goat anti-human Ig Fab-FITC, Cat # 2085-02, Southern biotech) with 1:400 dilution and incubate the plate for 30 min at 4° C. in dark. Centrifuge the plate at 2000 rpm, 4° C. for 5 min and discard supernatant.”
Results: The expressed trispecific constructs were analyzed for their binding to cells expressing endogenous CD3ε, 5T4 and NKG2A/NKG2D.

For experiment [4], the target named is T4, 5T4 on cells (NCI-H226 endogenous; CHO over-expressing 5T4) (UniProt Q13641 32-420, limits assumed).
T4 construct: whole, on cells
T4 sequence (looked up): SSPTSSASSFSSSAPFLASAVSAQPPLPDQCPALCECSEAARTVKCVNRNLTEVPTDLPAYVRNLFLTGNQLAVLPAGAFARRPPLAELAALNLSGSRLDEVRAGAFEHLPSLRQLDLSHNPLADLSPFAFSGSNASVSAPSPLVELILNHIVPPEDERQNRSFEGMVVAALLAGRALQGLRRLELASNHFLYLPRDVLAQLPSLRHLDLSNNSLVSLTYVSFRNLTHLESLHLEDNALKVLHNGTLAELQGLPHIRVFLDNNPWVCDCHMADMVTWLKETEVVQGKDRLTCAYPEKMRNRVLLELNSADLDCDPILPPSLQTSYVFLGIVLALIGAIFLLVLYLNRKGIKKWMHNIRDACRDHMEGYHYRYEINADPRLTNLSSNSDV
Briefly: FACS on CHO cells over-expressing ectopic 5T4 (FIG. 45D). The method, then:
Then wash the cells 3 times with 170 µL FACS buffer. Re-suspend the cells at 100 µL/well with secondary antibody (goat anti-human Ig Fab-FITC, Cat # 2085-02, Southern biotech) with 1:400 dilution and incubate the plate for 30 min at 4° C. in dark. Centrifuge the plate at 2000 rpm, 4° C. for 5 min and discard supernatant. Then wash the cells 3 times with FACS buffer and analyze the sample with FACS verse. The fluorescence intensity of the staining was measured using flow cytometer (BD, FACSVerse). The geometric mean fluorescence intensity (GMFI; median fluorescence intensity (MFI)) of set antibodies staining was calculated (BD FACSuite software). Dose-response curves were generated and EC50s for thetrispecific variants binding were calculated using GraphPad Prism software.
Results: The expressed trispecific constructs were analyzed for their binding to cells expressing endogenous CD3ε, 5T4 and NKG2A/NKG2D. […] (FIG. 45F).

Experiment [5] concerns the target T5, NKG2A/CD94 on CHO cells (CHOK1-NKG2A-CD94) (human, UniProt P26715 1-233; Q13241 1-179, limits assumed).
T5 construct: whole, on cells; also called CHO cells over-expressing NKG2A/CD94; CHO cell line over expressing ectopic NKG2A
Briefly: FACS on CHO cells over-expressing ectopic NKG2A (NKG2A/CD94 by the legend) (FIG. 45E). The method, then:
as §1

In experiment [6] the target is T5, NKG2A/CD94 on CHO cells …. Briefly: competitive FACS receptor-ligand blocking assay on CHOK1-NKG2A-CD94 cells, labelled ligand HLA-E PE (FIG. 49).

T5 sequence (P26715 whole entry, chain 1 of 2): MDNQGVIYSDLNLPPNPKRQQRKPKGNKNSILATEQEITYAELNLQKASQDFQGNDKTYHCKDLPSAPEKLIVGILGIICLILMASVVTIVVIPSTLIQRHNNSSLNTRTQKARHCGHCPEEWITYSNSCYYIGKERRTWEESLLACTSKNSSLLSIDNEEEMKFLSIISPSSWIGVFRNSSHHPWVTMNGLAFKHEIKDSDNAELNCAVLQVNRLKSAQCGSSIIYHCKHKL
T5 sequence (Q13241 whole entry, chain 2 of 2): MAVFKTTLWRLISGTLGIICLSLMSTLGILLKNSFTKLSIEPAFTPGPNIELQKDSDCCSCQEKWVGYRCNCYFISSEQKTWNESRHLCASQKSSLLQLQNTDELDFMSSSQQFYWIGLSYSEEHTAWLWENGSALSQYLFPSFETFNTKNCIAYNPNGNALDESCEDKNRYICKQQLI
T2 sequence (P26715 whole entry): as the sequence (P26715 whole entry, chain 1 of 2) above
T3 sequence (P07766 23-207): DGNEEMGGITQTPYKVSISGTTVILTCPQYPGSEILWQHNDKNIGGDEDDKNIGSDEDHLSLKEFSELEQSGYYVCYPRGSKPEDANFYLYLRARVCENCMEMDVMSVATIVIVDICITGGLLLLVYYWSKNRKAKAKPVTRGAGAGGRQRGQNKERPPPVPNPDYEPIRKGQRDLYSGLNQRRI
T1 sequence (P26715 94-233 limits assumed, chain 1 of 2): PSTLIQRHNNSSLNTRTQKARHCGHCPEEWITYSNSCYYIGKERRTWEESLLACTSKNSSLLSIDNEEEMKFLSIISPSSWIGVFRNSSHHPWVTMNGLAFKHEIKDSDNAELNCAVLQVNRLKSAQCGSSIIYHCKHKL
T1 sequence (Q13241 32-179 limits assumed, chain 2 of 2): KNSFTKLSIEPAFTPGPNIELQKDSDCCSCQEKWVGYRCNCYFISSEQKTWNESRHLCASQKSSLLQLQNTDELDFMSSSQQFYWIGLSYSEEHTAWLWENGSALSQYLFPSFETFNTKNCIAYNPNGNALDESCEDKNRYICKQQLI

B1: IM-1062 Tribody (other)
heavy: GGSGGSEVQLVESGGGLVQPGGSLRLSCAASGFTFNTYAMNWVRQAPGKGLEWVARIRSKYNNYATYYADSVKDRFTISRDDSKNTLYLQMNSLRAEDTAVYYCVRHGNFGNSYVSWFAYWGQGTMVTVSSASTKGPSVFPLAPSSKSTSGGTAALGCLVKDYFPEPVTVSWNSGALTSGVHTFPAVLQSSGLYSLSSVVTVPSSSLGTQTYICNVNHKPSNTKVDKRVEPKSCPPCGGGGSDIQMTQSPSSLSASVGDRVTITCRASENIYSYLAWYQQKPGKAPKLLIYNAKTLAEGVPSRFSGSGSGTDFTLTISSLQPEDFATYYCQHHYGTPRTFGGGTKVEIKGGGGSGGGGSGGGGSGGGGSQVQLVQSGAEVKKPGASVKVSCKASGYTFTSYWMNWVRQAPGQGLEWMGRIDPYDSETHYAQKLQGRVTMTTDTSTSTAYMELRSLRSDDTAVYYCARGGYDFDVGTLYWFFDVWGQGTTVTVSS
light: GGSGGSQAVVTQEPSLTVSPGGTVTLTCRSSTGAVTTSNYANWVQQKPGQAPRGLIGGTNKRAPGTPARFSGSLLGGKAALTLSGVQPEDEAEYYCALWYSNLWVFGGGTKLTVLGQPKAAPSVTLFPPSSEELQANKATLVCLISDFYPGAVTVAWKADSSPVKAGVETTTPSKQSNNKYAASSYLSLTPEQWKSHRSYSCQVTHEGSTVEKTVAPTECPPCSGGGSDIQMTQSPSSLSASVGDRVTITCRASQGISNYLAWFQQKPGKAPKSLIYRANRLQSGVPSRFSGSGSGTDFTLTISSLQPEDVATYYCLQYDDFPWTFGQGTKLEIKGGGGSGGGGSGGGGSGGGGSQVQLVQSGAEVKKPGASVKVSCKASGYTFTSFWMHWVRQAPGQGLEWMGRIDPNRGGTEYNEKAKSRVTMTADKSTSTAYMELSSLRSEDTAVYYCAGGNPYYPMDYWGQGTTVTVSS
notes: Tri-specific antibody (Tribody): anti-CD3 epsilon Fab with an anti-5T4 scFv and an anti-NKG2A scFv, no regulatory domain; also called the Tribody format
The EC50 is the midpoint of the concentration-response curve. A high value points to a need for much substance. The term IC50 denotes the midpoint of a concentration-inhibition curve. Read a low IC50 as greater potency in that assay. With B1, the EC50 was found to be 5.7 nM in experiment [1]; 6.5 nM in experiment [2]; 1.1 nM in experiment [3]; 0.9 nM in experiment [4]; 29 nM in experiment [5]. This molecule also displayed an IC50 in experiment [6] of 29 nM.

The values are drawn from patent publication US20230312753A1 (IMMUNORIZON, published 2023).
